Data set [1] concerns Saccharomyces cerevisiae. The data set can be described thus: protein stability index of tFT-peptide fusion in deletion strain of DOA10 (PSI (0-1 scale)); higher = more stable (slower turnover). Here is the method: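 MPS profiling in S. cerevisiae of two library types built from selected 12-aa C-degron peptides (IN1, IN2, LN1, LN3, VN2, R1-R5, W1-W3, Atg1 and Rpa12 C-termini): saturation mutagenesis libraries and C-terminal +1 capping libraries (13 aa). Each peptide is fused to the C-terminus of a sfGFP-mCherry timer, after a GGGS linker. Cells are FACS-sorted into 8 mCherry/sfGFP bins and sequenced. PSI runs from 0 (unstable) to 1 (stable), measured once in wild type and in the das1Δ or doa10Δ background.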

Data set [2] has as its system Saccharomyces cerevisiae. The data set can be described thus: protein stability index of tFT-peptide fusion in wild type (PSI (0-1 scale)); higher = more stable (slower turnover). To be noted: genetic background: wild type.
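For protein stability index of tFT-peptide fusion in deletion strain of DOA10 in this document: PSI per variant is the weighted mean of its sequencing read distribution over the sorted stability bins, counting only variants with over 10 reads summed across bins.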
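For protein stability index of tFT-peptide fusion in wild type in this document: PSI derived as read-weighted mean over the 8 sorting bins, only variants exceeding 10 total reads kept, mCherry placed adjacent to the peptide and sfGFP distal.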

Consider RKLRVLLPLYFR, for which the results for the protein stability index in the data set with Saccharomyces cerevisiae [1] and in the data set with Saccharomyces cerevisiae [2] were 0.668 and 0.282, respectively.

With RSDRVLLPLYFR, the values for the protein stability index with Saccharomyces cerevisiae [1] and in the data set on Saccharomyces cerevisiae [2] were 0.696 and 0.352, respectively.

Turning to RSLCVLLPLYFR, the protein stability index with Saccharomyces cerevisiae [1] stood at 0.616; in the data set with Saccharomyces cerevisiae [2], 0.247.

Turning to RSLHVLLPLYFR, the protein stability index with Saccharomyces cerevisiae [1] amounted to 0.634; in the data set with Saccharomyces cerevisiae [2], 0.273.

Consider RSLIVLLPLYFR, for which the protein stability index with Saccharomyces cerevisiae [1] worked out at 0.597; in the data set with Saccharomyces cerevisiae [2] it was 0.288.

As for RSLRALLPLYFR, the protein stability index in the data set with Saccharomyces cerevisiae [1] was found to be 0.684; in the data set on Saccharomyces cerevisiae [2], 0.491.

Turning to RSLRQLLPLYFR, the protein stability index was 0.68 with Saccharomyces cerevisiae [1] and 0.466 with Saccharomyces cerevisiae [2].

On to RSLRTLLPLYFR, for which the protein stability index in the data set with Saccharomyces cerevisiae [1] turned out to be 0.686; with Saccharomyces cerevisiae [2], 0.455.

Take RSLRVFLPLYFR: the protein stability index with Saccharomyces cerevisiae [1] was 0.693; with Saccharomyces cerevisiae [2] it was 0.127.

Take RSLRVLLALYFR: the protein stability index was 0.552 in the data set with Saccharomyces cerevisiae [1] and 0.287 in the data set on Saccharomyces cerevisiae [2].

For RSLRVLLGLYFR, the values for the protein stability index in the data set on Saccharomyces cerevisiae [1] and with Saccharomyces cerevisiae [2] were 0.662 and 0.392, respectively.

For the sequence RSLRVLLPCYFR, the figures for the protein stability index in the data set on Saccharomyces cerevisiae [1] and in the data set with Saccharomyces cerevisiae [2] were 0.647 and 0.409, respectively.

With RSLRVLLPKYFR, the protein stability index in the data set with Saccharomyces cerevisiae [1] worked out at 0.676; in the data set with Saccharomyces cerevisiae [2], 0.646.

Turning to RSLRVLLPLGFR, the protein stability index turned out to be 0.682 with Saccharomyces cerevisiae [1] and 0.482 in the data set with Saccharomyces cerevisiae [2].

Consider RSLRVLLPLQFR, for which the figures for the protein stability index in the data set on Saccharomyces cerevisiae [1] and in the data set on Saccharomyces cerevisiae [2] were 0.635 and 0.472, respectively.

As for RSLRVLLPLVFR, the protein stability index turned out to be 0.676 with Saccharomyces cerevisiae [1] and 0.356 in the data set with Saccharomyces cerevisiae [2].

As to RSLRVLLPLYFG, the protein stability index in the data set with Saccharomyces cerevisiae [1] came to 0.591; with Saccharomyces cerevisiae [2], 0.452.

Take RSLRVLLPLYFRS: the values for the protein stability index in the data set on Saccharomyces cerevisiae [1] and in the data set on Saccharomyces cerevisiae [2] were 0.644 and 0.3, respectively.

Consider RSLRVLLPLYMR, for which the protein stability index in the data set on Saccharomyces cerevisiae [1] came to 0.696; in the data set on Saccharomyces cerevisiae [2] it was 0.326.

In the case of RSLRVLQPLYFR, the protein stability index in the data set on Saccharomyces cerevisiae [1] was 0.685; in the data set on Saccharomyces cerevisiae [2], 0.285.

As to RSLTVLLPLYFR, the protein stability index came to 0.662 in the data set on Saccharomyces cerevisiae [1] and 0.24 with Saccharomyces cerevisiae [2].

For the sequence RVARLDAIYFRI, the protein stability index in the data set with Saccharomyces cerevisiae [1] was found to be 0.663; with Saccharomyces cerevisiae [2] it was 0.449.

In the case of RVFRLDAIYFRI, the results for the protein stability index in the data set on Saccharomyces cerevisiae [1] and in the data set with Saccharomyces cerevisiae [2] were 0.619 and 0.319, respectively.

In the case of RVTALDAIYFRI, the protein stability index in the data set on Saccharomyces cerevisiae [1] turned out to be 0.69; with Saccharomyces cerevisiae [2], 0.558.

As for RVTRFDAIYFRI, the protein stability index in the data set on Saccharomyces cerevisiae [1] worked out at 0.645; in the data set on Saccharomyces cerevisiae [2], 0.287.

As for RVTRLDAIHFRI, the protein stability index in the data set on Saccharomyces cerevisiae [1] stood at 0.7; with Saccharomyces cerevisiae [2], 0.66.

For the sequence RVTRLDAIVFRI, the protein stability index turned out to be 0.693 with Saccharomyces cerevisiae [1] and 0.534 with Saccharomyces cerevisiae [2].

Regarding RVTRLDAIYCRI, the protein stability index in the data set with Saccharomyces cerevisiae [1] came to 0.696; in the data set on Saccharomyces cerevisiae [2], 0.621.

For RVTRLDAIYFRC, the protein stability index with Saccharomyces cerevisiae [1] was 0.66; in the data set on Saccharomyces cerevisiae [2], 0.431.

Turning to RVTRLDAIYFRD, the protein stability index in the data set on Saccharomyces cerevisiae [1] came out at 0.72; in the data set on Saccharomyces cerevisiae [2], 0.688.

In the case of RVTRLDAIYFRIC, the protein stability index was found to be 0.103 with Saccharomyces cerevisiae [1] and 0.0626 in the data set with Saccharomyces cerevisiae [2].

In the case of RVTRLDAIYFRIE, the protein stability index in the data set with Saccharomyces cerevisiae [1] came to 0.689; in the data set on Saccharomyces cerevisiae [2], 0.627.

For RVTRLDAIYFRIM, the protein stability index was determined as 0.129 in the data set on Saccharomyces cerevisiae [1] and 0.0601 in the data set on Saccharomyces cerevisiae [2].

As to RVTRLDAIYFRIN, the results for the protein stability index with Saccharomyces cerevisiae [1] and with Saccharomyces cerevisiae [2] were 0.125 and 0.0776, respectively.

Take RVTRLDAIYFRM: the results for the protein stability index with Saccharomyces cerevisiae [1] and in the data set with Saccharomyces cerevisiae [2] were 0.674 and 0.422, respectively.

Take RVTRLDAIYFRR: the results for the protein stability index with Saccharomyces cerevisiae [1] and with Saccharomyces cerevisiae [2] were 0.708 and 0.653, respectively.

In the case of RVTRLDASYFRI, the protein stability index was 0.715 with Saccharomyces cerevisiae [1] and 0.676 with Saccharomyces cerevisiae [2].

On to RVTRLDCIYFRI, for which the protein stability index in the data set with Saccharomyces cerevisiae [1] is 0.647; in the data set on Saccharomyces cerevisiae [2] it was 0.367.

Take RVTRLDGIYFRI: the protein stability index in the data set with Saccharomyces cerevisiae [1] was 0.567; in the data set with Saccharomyces cerevisiae [2] it was 0.389.

For RVTRLDHIYFRI, the figures for the protein stability index in the data set with Saccharomyces cerevisiae [1] and in the data set on Saccharomyces cerevisiae [2] were 0.717 and 0.281, respectively.

On to RVTRLDSIYFRI, for which the protein stability index worked out at 0.703 in the data set with Saccharomyces cerevisiae [1] and 0.46 in the data set with Saccharomyces cerevisiae [2].

For RVTRLDVIYFRI, the results for the protein stability index in the data set on Saccharomyces cerevisiae [1] and in the data set on Saccharomyces cerevisiae [2] were 0.649 and 0.3, respectively.

As to RVTRLFAIYFRI, the protein stability index with Saccharomyces cerevisiae [1] turned out to be 0.409; in the data set on Saccharomyces cerevisiae [2] it was 0.177.

For RVTRNDAIYFRI, the values for the protein stability index in the data set with Saccharomyces cerevisiae [1] and in the data set with Saccharomyces cerevisiae [2] were 0.694 and 0.552, respectively.

On to RVTRTDAIYFRI, for which the protein stability index worked out at 0.704 with Saccharomyces cerevisiae [1] and 0.499 in the data set with Saccharomyces cerevisiae [2].

For RVTRWDAIYFRI, the protein stability index was determined as 0.368 with Saccharomyces cerevisiae [1] and 0.165 with Saccharomyces cerevisiae [2].

As for RVTRYDAIYFRI, the protein stability index was 0.603 in the data set with Saccharomyces cerevisiae [1] and 0.332 in the data set with Saccharomyces cerevisiae [2].

As to SVTRLDAIYFRI, the protein stability index in the data set on Saccharomyces cerevisiae [1] is 0.716; in the data set with Saccharomyces cerevisiae [2] it was 0.363.

Turning to VSLRVLLPLYFR, the protein stability index worked out at 0.611 in the data set with Saccharomyces cerevisiae [1] and 0.283 in the data set with Saccharomyces cerevisiae [2].

For WSLRVLLPLYFR, the results for the protein stability index with Saccharomyces cerevisiae [1] and with Saccharomyces cerevisiae [2] were 0.636 and 0.269, respectively.

As for WVTRLDAIYFRI, the protein stability index is 0.62 with Saccharomyces cerevisiae [1] and 0.161 in the data set with Saccharomyces cerevisiae [2].

For the origin of these results see the supplement of paper PMC10724198.
